Reference: the RNAGym collection of RNA variant scans (doi:10.1073/pnas.2313332121)
This sample holds only a part of the variants without activity.

B1: TPR 5TU (parent)
chain: GGAUCUUCUCGAUCUAACAAAAAAGACAAAUCUGCCACAAAGCUUGAGAGCAUCUUCGGAUGCAGAGGCGGCAGCCUUCGGUGGCGCGAUAGCGCCAACGUUCUCAACUAUGACACGCAAAACGCGUGCUCCGUUGAAUGGAGUUUAUCAUG

Variants of: B1
Assay: polymerase ribozyme fitness, log enrichment relative to wild type (log ratio); higher = more active; in vitro selection for triplet polymerase activity
In short: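 For each subunit of a heterodimeric triplet polymerase ribozyme, a mutant library was built by PCR and transcribed, then taken through a single in vitro selection round in triplicate. Selection involved annealing to a biotinylated primer, the partner subunit and triplets, incubation frozen at −7 °C, gel excision of extended constructs, capture on streptavidin beads and RT-PCR. Genotypes were retained after Illumina sequencing of inputs and outputs only with ≥10 input reads and ≥1 read in each output. Fitness is defined as the logarithm of a genotype's enrichment relative to wild-type enrichment, using inverse-variance-weighted averages across replicates, with the logarithm taken to base 2.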

Variant	polymerase ribozyme fitness (log ratio)
GGAUCUUCUCGAUCUAACAAAAAAGACAAAUCUGCCACAAAGCUUGAGAGCAUCUUGGGAUGCAGAGGCGGCAGCCUUCGGUGGCGCGAUAGCGCCAACGUUCUCAACUAUGGCACGCAAAACGCGUGCUCCGUUGAAUGGAGUUUAUCAUG [C57G A113G]	-3.44
GGAUCUUCUCGAUCUAACAAAAAAGACAAAUCUGCCACAAAGCUUGAGAGCAUCUUAGGAUGCAGAGGCGGCAGCCUCCGGUGGCGCGAUAGCGGCAAGGUUCUCAACUAUGACACGCAAAACGCGUGCUCCGUUGAAUGGAGUUUAUCAUG [C57A U78C C95G C99G]	-3.07
GGAUCUUCUCGAUCUAACAAAAAAGACAAAUCUGCCACAAAGCUUGAGAGCAUCUUGGGAUGCAGAGGCGGCAGCCUUCGGUGGCUCGAUAGCGCCAACGUUCUCAACUAUGACACGCAAAACGCGUGCUCCGUUGAAUGGAGUUUAUCAUG [C57G G86U]	-1.26
GGAUCUUCUCGAUCUAACAAAAAAGACAAAUCUGCCACAAAGCUUGAGAGCAUCUUGGGAUGCAGAGGCGGCAGCCUUCGGUAGCGCGAUAGCGCCAACGUUCUCAACUAUGACACGCAAAACUCGUGCUCCGUUGAAUGAAGUUUAUCAUG [C57G G83A G124U G141A]	-1.22
GGAUCUUCUCGAUCUAACAAAAAAGACAAAUCUGCCACAAAGCUUGAGAGCAUCUUGGGAUGCAGAGGCGGCGGCCUUCGGUGGCGGGAUAGCGCCAUCGUUCUCAACUAUGACACGCAAAACGGGUGCUCCGUUGAAUGAAGUUUAUCAUG [C57G A73G C87G A98U C125G G141A]	≤ -4.2
GGAUCUUCUCGAUCUAACAAAAAAGACAAAUCUGCCACAAAGCUUGAGAGCAUCUUGGGAUGCAGAGGCGGCAGCCUUCGGUGGCGCUAUAGCACCAACGUUCUCAACUAUGACACGCAAAACGCGUGCUCCGUUGAAUGGAGUUUAUCAUG [C57G G88U G94A]	≤ -4.2
GGAUCUUCUCGAUCUAACAAAAAAGACAAAUCUGCCACAAAGCUUGAGAGCAUCUUGGGAUGCAGAGGAGGCAGCCUUCGGUGGCGCGAUAGCGCCAACGUUCUCAACUAUGACACGCAAAACGCGUGCUCCGUUGAAUGGAGUUUAUCAUG [C57G C69A]	-2.56
GGAUCUUCUCGAUCUAACAAAAAAGACAAAUCUGCCACAAAGCUUGAGAGCAUCUUGGGAUGCAGAGGCAGCAGCCUUCGGUGGCGUGAUAGCGCCAACGUUCUCAACUAUGACACGCAAAAAGCGUGCUCCGUUGAAUGGAGUUUAUCAUG [C57G G70A C87U C123A]	≤ -4.2
GGAUCUUCUCGAUCUAACAAAAAAGACAAAUCUGCCACAAAGCUUGAGAGCAUCUUGGGAUGCAGAGGCGGCAGCCUUCGGUGGCGUGCUAGCGCCAACGUUCUCAACUAUGACAAGCAAAACGCGUGCUCAGUUGAAUGGAGUUUAUCAUG [C57G C87U A89C C116A C132A]	-4.13
GGAUCUUCUCGAUCUAACAAAAAAGACAAAUCUGCCACAAAGCUUGAGAGCAUCUUGGGAUGCAGAGGCGGCAGCCUUCGGUGGCGCGAUAGCGCCAACGUUCUCAACUAUGACACGCAAAACGAGUGCUCCGUUGAAUGGAGUUUAUCAUG [C57G C125A]	-0.508
GGAUCUUCUCGAUCUAACAAAAAAGACAAAUCUGCCACAAAGCUUGAGAGCAUCUUGGGAUGCAGAGGCGGCUGCCUUCGGUCGCGCGAUAGCGCCAACGUUCUCAACUAUGACACGCAAAACGCGUGCUCCUUUGAAUGGACUCUAUCAUG [C57G A73U G83C G133U G143C U145C]	≤ -4.2
GGAUCUUCUCGAUCUAACAAAAAAGACAAAUCUGCCACAAAGCUUGAGAGCAUCUUGGGAUGCAGAGGCGGCAGCCUUCGGUGGGGCGAUAGCGCCAACGUUCUCAACUAUGACACGCAAAACGCGUGCUCCGUUGAAUGGAGUUUAUCAUG [C57G C85G]	-1.95
GGAUCUUCUCGAUCUAACAAAAAAGACAAAUCUGCCACAAAGCUUGAGAGCAUCUUGUGAUGCAGAGGCGGCAGCCUUCGGUGGCGCGAUAGAGCCAACGUUCUCAACUAUGACACGCAAAACGCGUGCUCCGUUGAAUGGAGUUUAUCAUG [C57G G58U C93A]	-1.39
GGAUCUUCUCGAUCUAACAAAAAAGACAAAUCUGCCACAAAGCUUGAGAGCAUCUUGGGAUGCAGAGGCGGCAGUCUUCGGUGGCACGAUCGCGCCAACGUUCUCAACUAUGACACGCAAAACGCGUGCUCCGUUGAAUGGAGUUUAUCAUG [C57G C75U G86A A91C]	≤ -4.2
GGAUCUUCUCGAUCUAACAAAAAAGACAAAUCUGCCACAAAGCUUGAGAGCAUCUUGGGAUGCAGAGGGGGCAGCCUUCGGUGGCGCGAUAGCGCCAACGGUCUCAACUAUGACACGUAAAACGCGUGCUCCGUUGAAUGGAGUUUAUCAUG [C57G C69G U101G C118U]	-2.81
GGAUCUUCUCGAUCUAACAAAAAAGACAAAUCUGCCACAAAGCUUGAGAGCAUCUUAGGAUGCAGAGGCGGCAGCCUUCGGUGGCGCGAUAGCGCCAACGGUCUCAACUAUGACACGCAAAACGCGUGCUCCGUUGAAUGGAGUUUAUCAUG [C57A U101G]	0.71
GGAUCUUCUCGAUCUAACAAAAAAGACAAAUCUGCCACAAAGCUUGAGAGCAUCUUGGGAUGCAGAGGCGGCCGCCUUCGGUGGCGGGAUAGCGCCGACGGUCUCAACUAUGACACGCAAAACGCGUGCCCCGUUGAAUGGAGUUUAUCAUG [C57G A73C C87G A97G U101G U130C]	≤ -4.2
GGAUCUUCUCGAUCUAACAAAAAAGACAAAUCUGCCACAAAGCUUGAGAGCAUCUUGGGAUGCAGAGGCGGCAGCUUUCGGUGGCGCAAUAUCGCCAACGUUCUCAACUAUGACACGCAAAACGCGUGCUCCGUUGAAUGGAGUUUAUCAUG [C57G C76U G88A G92U]	-3.96
GGAUCUUCUCGAUCUAACAAAAAAGACAAAUCUGCCACAAAGCUUGAGAGCAUCUUGGGAUGCAGAGGCGGCAGCCUUCGGUGGCGCGAUAGUGCCAACGUUCUCAACUAUGACUCGCAAAACGCGUGCUCCGUUGAAUGGAGUUUAUCAUG [C57G C93U A115U]	-3.44

Variant	polymerase ribozyme fitness (log ratio)
GGAUCUUCUCGAUCUAACAAAAAAGACAAAUCUGCCACAAAGCUUGAGAGCAUCUUGGGAUGCAGAGGCGGCAGCCUUCGGUGGCGCGAUAGAGCCAACGUUCUCAACUAUGGCACGCACAACGCGUGCUCCGUUGAAUGGAGUUUAUCAUG [C57G C93A A113G A120C]	-4.13
GGAUCUUCUCGAUCUAACAAAAAAGACAAAUCUGCCACAAAGCUUGAGAGCAUCUUGGGAUGCAGAGGCGUGAGCCUUCGGUGUCGCGAUAGCGCCAACGUUCUCAACUAUGACACGCAAAACGCGUGCUCCUUUGUAUGGAGUUUAUCAUG [C57G G71U C72G G84U G133U A137U]	≤ -4.2
GGAUCUUCUCGAUCUAACAAAAAAGACAAAUCUGCCACAAAGCUUGAGAGCAUCUUAGGAGGCAGAGGCGGCAGCCUGCGGUGGCGCAAUAGCGCCAACGUUCUCAACUAUGACACGCAAAACGCGUGCUCCGUUGAAUGGAGUUUAACAUG [C57A U61G U78G G88A U148A]	≤ -4.2
GGAUCUUCUCGAUCUAACAAAAAAGACAAAUCUGCCACAAAGCUUGAGAGCAUCUUGGGAUGCAGAGGCGGCAGCCUUCGGUGGCGAGAUAGCGCCAACGUUCUCAACUAUGACACGCAAAACGCGUGCUCCGUUGAAUGGAGCUUAUCAUG [C57G C87A U144C]	-3.75
GGAUCUUCUCGAUCUAACAAAAAAGACAAAUCUGCCACAAAGCUUGAGAGCAUCUUGGGAUGCAGAGGCGGCGGCCUUCGGUGGCGCGAUAGCGCCAACGUUCUCAACUAUGACAUGCAAAACGCGUGCUCCGUUGAAUGGAGUUUAUCAUG [C57G A73G C116U]	-0.324
GGAUCUUCUCGAUCUAACAAAAAAGACAAAUCUGCCACAAAGCUUGAGAGCAUCUUAGGAAGCAGAGGCGGCAGCCUUCGGUGGCGCGAUAGCGUCUACGUUCUCAACUAUGACUCGCAAAACGCGUGCUCCGUUGAAUGGAGCUUAUCAUG [C57A U61A C95U A97U A115U U144C]	≤ -4.2
GGAUCUUCUCGAUCUAACAAAAAAGACAAAUCUGCCACAAAGCUUGAGAGCAUCUUGGGAUGCAGAGGCGGCAGCCUUCGGUGGCGCGAUAGCCCCAACGUUCUCAACUAUGAGACGAAAAACGCGUGCUCCGUUGAAUGGAGUUUAUCAUG [C57G G94C C114G C118A]	≤ -4.2
GGAUCUUCUCGAUCUAACAAAAAAGACAAAUCUGCCACAAAGCUUGAGAGCAUCUUGGGAUGCAGAGGCGGCAGCCUUCGGUGGCGCGAUAGCGCCAACGUUCUCAACUAUGACUCGCAAAACGCGUGCUCCGUUGAAUGGAGUAUAUCAUG [C57G A115U U145A]	-1.54
GGAUCUUCUCGAUCUAACAAAAAAGACAAAUCUGCCACAAAGCUUGAGAGCAUCUUGGGAUGCAGAGGCGGCAGCCUUCGGUGGCGCGAUAGCGCCAACGUUGUCAACUAUGACACGCAAAACGCGUGCUCCGUUGAAUGGAGUUUAUCAUG [C57G C103G]	-2.16
GGAUCUUCUCGAUCUAACAAAAAAGACAAAUCUGCCACAAAGCUUGAGAGCAUCUUGGGAUGCAGAGGCGGCAGCCUUCGGUGGCGCGAUAGAGCCAACGUUCUCAACUAUGACACGCAAAACGCGUGCUCCGUUGAAUGGAGUUUAUCAUG [C57G C93A]	-2.2
GGAUCUUCUCGAUCUAACAAAAAAGACAAAUCUGCCACAAAGCUUGAGAGCAUCUUGGGAUGCAGAGGCGGCAGCCUUCGGUGGCGCGAUAGGGCCAACGUUCUCAACUAUGACACGCAAAACGCGUGCUCCGUUGAAUGGAGUUUAUCAUG [C57G C93G]	-4.06
GGAUCUUCUCGAUCUAACAAAAAAGACAAAUCUGCCACAAAGCUUGAGAGCAUCUUAGGAUGCAGAGGCGGCAGCCUUCGGUGGCGCGAUAGCGCCAACGUUCUCAACUAUGACACGCAAAACGCGUGCUCCGUUGAAUGGAGUUAAUCAUG [C57A U146A]	-0.0166
GGAUCUUCUCGAUCUAACAAAAAAGACAAAUCUGCCACAAAGCUUGAGAGCAUCUUGGAAUGCAGAGGCGGCAGCCUUCUGUGGCGCGAUAUCGCCAAAGUUCUCAACUAUGACACGCAAAACGCGUGCUUCGUAGAAUGGAGUUUAUCAUG [C57G G59A G80U G92U C99A C131U U135A]	-3.22
GGAUCUUCUCGAUCUAACAAAAAAGACAAAUCUGCCACAAAGCUUGAGAGCAUCUUGGAAUGCAGAGGCGGCAGCCUUCGGUGGCGCGAUAGCGCCAACGUUCUCAACUAUGACACGUAAAACGAGUGCUCCGUUCAAUGGAGUUUAUCAUG [C57G G59A C118U C125A G136C]	-3.19
GGAUCUUCUCGAUCUAACAAAAAAGACAAAUCUGCCACAAAGCUUGAGAGCAUCUUGGGAUGCAGAGGCGGCAGCCUUCGGUGACGCGAUAGCGCCAACGUUCUCAACUAUGACACGCAAAACGCGUGCUCCGUUGAAUGGAGUUUAUCAUG [C57G G84A]	-0.518
GGAUCUUCUCGAUCUAACAAAAAAGACAAAUCUGCCACAAAGCUUGAGAGCAUCUUGGGAUGCAGAGGCGGCAGCCUUCGGUGUCGCGAUAGCGCCAACGUUCUCAACUAUGACACGCAAAACGCGUGCUCCGUUGAAUGGAGUUUAUCAUG [C57G G84U]	-1.79
GGAUCUUCUCGAUCUAACAAAAAAGACAAAUCUGCCACAAAGCUUGAGAGCAUCUUGGGAUGCAGAGGCGGCAGCCUUCGGUGGCGCGAUAGCGCGAACGUUCGCAACUAUGACACGCAAAACGCGUGCUCCGUUGAAUGGAGUUUAUCAUG [C57G C96G U104G]	-4.16
GGAUCUUCUCGAUCUAACAAAAAAGACAAAUCUGCCACAAAGCUUGAGAGCAUCUUGGAAUGCAGAGGCGGCAGCCUGCGGUGACGCGAUAGCGCCAACGUUCUCAACUAUGACACGCAAAACGCGUGCUCCGUUGAAUGGAGUUUAUCAUG [C57G G59A U78G G84A]	≤ -4.2
GGAUCUUCUCGAUCUAACAAAAAAGACAAAUCUGCCACAAAGCUUGAGAGCAUCUUGGGAUGCAGAGGCGGCAGCCUUCGUUGGGGCGAUAGCGCUAACGUUCUCAACUAUGACACGCAAAACGCGUGCUCCGAUGAAUGGAGUUUAUCAUG [C57G G81U C85G C96U U134A]	-4.03
